Experimental data: US20190352664A1, “COMPOSITIONS AND METHODS FOR CONTROLLING GENE EXPRESSION” (priority 2017, published 2019)

How the values were obtained:
Arabidopsis = test: Ribo-seq and RNA-seq global translatome profiling (translational efficiency TE, mORF/uORF ribo-shift) upon elf18 treatment; type: in vivo; design: key to score (Ribo-shift): Up: ribo-shift up (i.e., increased mORF/uORF ratio); Down: ribo-shift down (i.e., decreased mORF/uORF ratio); details: elf18 vs Mock; for score (TE change): translational efficiency fold change, listed as shows 5′ UTR of the transcript
dual luciferase reporter = test: Dual luciferase assay (LUC/RLUC), transient expression; type: in vivo, N. benthamiana; details: 5′ leader sequence reporters
LUC, GFPER, TBF1-YFP = test: Transient expression of uORF-controlled LUC, GFPER and TBF1-YFP; type: in vivo, N. benthamiana
LUC reporter = type: in vivo, Oryza sativa cultivar ZH11

B1: AT5G61010.1: 5′ UTR of transcript; exocyst subunit exo70 family protein E2 (nucleic acid)
DNA: TCTTTCCCTTCTTCTTCCCCAATAATCTCGCTGAAACTCTCTTGCTCTTGCTTCTAAAAATCTGTTCTTTGAGACTTTGATCACACAGTTATCAAAATCATAATCTCTTCTTTCCTGGTTTTTTTTTTTTTCTTCTTCTTCTTCCCGTTTCACGGTACGTTTACTCTGTTCGATCACCGAGTGTATGATAAAATGTTTCTGTGAAATCAAATAACATATCACTTTCTAATAAACATCAAAATTTCTCCTTTTTTACAGAAACAAGAAGTTTTTTTGGGAAAGCCGTTGACTTGACTTTTTCTTTGGGGTGTTGTGTGGGAGCTTATAGTATGGTACCATAAGTGGGAGCTTATAGTTTGGGGTGTTGTGTGGGAGCTTATAGTATGAGGAAAAATGTTAGATTTGAAGAATGCTTCACTGATTTTTTACCATAAGTATGTCAACTGGATTAAGCTTAAGTAGTAATGGTTTTTACTATGTTCATGTGGGGATTTCTCTTCCTCTCTGTTTACTTCATTCCGAGATGACTTGAGATTTTTTCAAAGTATAGTTCTTGGAGTTAAGCTTACCTAGTAATCACTTTATATAACATCCCTTCGTTTACATTTGTGCTTTCACCTGGAAACACTTTAGACTTTTCTCTCTTCTGCCGTGTGTATTTAGTTGTCTAGTCAAATTTAAGTTGAGTTTAGGCTCTAGTCTTTGGTTTTGGTT
- score (TE change) (Arabidopsis): TEdown (389 genes displayed decreased TEfc (|z|≥1.5))

B2: AT5G61010.1_3: uORF of AT5G61010.1; peptide SEQ ID NO: 38 (nucleic acid)
DNA: ATGTCAACTGGATTAAGCTTAAGTAGTAATGGTTTTTACTATGTTCATGTGGGGATTTCTCTTCCTCTCTGTTTACTTCATTCCGAGATGACTTGA
modifications: listed as DNA, chemistry not fully specified
- score (Ribo-shift) (Arabidopsis; shift of mORF/uORF ratio, per uORF): Down

B3: ZIK3: R-motif-dependent gene; 5′ leader sequence tested in dual luciferase reporter (nucleic acid, listed as Arabidopsis thaliana)
DNA: ACTTGTTTCCTTATATATTCTTCTCCCTTTAAACATTTAATCTTTTCCTCTTCTACCATCTCCACAAATTCCAAACATCTCTCTCTCTTTCTCTCTCACACACAAAATTGCAGAAGAAGAAGAGTC
modifications: listed as DNA, chemistry not fully specified
- TE when PAB2 was co-expressed (dual luciferase reporter): lower TE

B4: AT1G12580.1: 5′ UTR of transcript; phosphoenolpyruvate carboxylase-related kinase 1 (nucleic acid)
DNA: GAGAGAGGACTGGGTCTGGTCTCTTCGCTGCAACCTATAGCTGTTGTTTGCTCTTCGACGGGATTCTCACTACTCTTTTGCCAAAAAAAAGAGATCGGAGGTTCCGAAGGTGAATGCAGCTTGCGATTTCATAGAAAAGAAGATTCGTTTGCTGGATTAGGCTTATTTGTGTATCATAGCTTTGAGGTTTTAACTGAGATTTATTGATAGTGGAACTTAGGTTTTCGAGAGGTGTGAACAGTTGGGTAT
- score (TE change) (Arabidopsis): TEup (448 had increased TEfc)

B5: BET10: R-motif-dependent gene; 5′ leader sequence tested in dual luciferase reporter (nucleic acid, listed as Arabidopsis thaliana)
DNA: TTAGGGACGGGACACTAGAGAAGGGAGGGCAGAGAGCGATTTTGTTCTCTCTCTACTTCTCGGTCGTCTTCTTCGTCTCCACTCTAGGGTTTTACTCTATCTTCTTCTTCATCATCATCTTCTACACCAATCTCTAGCGTTAATCTGTTTCTGCTGGAGAAGATTTACGCTTGTTCCTCGGTTCTCTTACTTCTGCTCCGGTTCGATCGCTTGCTAAGTGTTTCGAGTTGGTTCGCACTTCGGTGGGCGATATC
- TE when PAB2 was co-expressed (dual luciferase reporter): lower TE

B6: AT1G30330.1: 5′ UTR of transcript; auxin response factor 6 (nucleic acid)
DNA: CTTCTTCTTCTGATTCTCATTTCAAATAAGAGAGAGAGAGAGAGAAGTAAGTAAAACTTTAGCAGAGAGAAGAATAAACAAATAATTATAGCACCGTCACGTCGCCGCCGTATTTCGTTACCGGAAAAAAAAAATCATTCTTCAACATAAAAATAAAAACAGTCTCTTTCTTTCTATCTTTGTCTATCTTTGATTATTCTCTGTGTACCCATGTTCTGCAACAGTTGAGCAAGTGCATGCCCCATATCTCTCTGTTTCTCATTTCCCGATCTTTGCATTAATCATATACTTCGCCTGAGATCTCGATTAAGCCAGCTTATAGAAGAAGAAACGGCACCAGCTTCTGTCGTTTTAGTTAGCTCGAGATCTGTGTTTCTTTTTTTCTTGGCTTCTGAGCTTTTGGCGGTGGTGGGTTTTTCTGGAGAAACCCAAACGACTATCAAAGTTTTGTTTTTTACAATTTTAAGTGGGAGTTATGAGTGGGGTGGATTAAGTAAGTTACAAGTATGAAGGAGTTGAAGATTCGAAGAAGCGGTTTTGAAGTCGGCGAGACCAAGATTGCGAGCTTATTTGGCTGATGATTTATTTCAGGGAAGAAGAAATAAATCTGTTTTTTTTAGGGTTTTTAGATTTGGTTGGTGAATGGGTGGGAGGTGGAGGGAAACAGTTAAAAAAGTTATGCTTTTAGTGTCTCTTCTTCATAATTACATTTGGGCATCTTGAAATCTTTGGATCTTTGAAGAAACAAAGTTGTGTTTTTTTTTTTGTTCTTTGTTGTTTGCTTTTTAAGTTAGAATAAAAA
- score (TE change) (Arabidopsis): TEdown (389 genes displayed decreased TEfc (|z|≥1.5))

B7: AT1G59700.1: 5′ UTR of transcript; glutathione S-transferase TAU16 (nucleic acid)
DNA: ATTGTGTGGTGACAAGCAACACATGATATGTCCGTTTAGAAACAGACAAAATAAGAAGAAGAAGAAAGAGTCGTGGAGGATTCTTCATTCTTCCTCATCCTCTTCTTCACCGATTCATTAGAAACCAAATTACAAAAAAAAACGTCTATACACAAAAAAACAA
- score (TE change) (Arabidopsis): TEdown (389 genes displayed decreased TEfc (|z|≥1.5))

B8: uORFsTBF1: 5′ leader sequence of TBF1 with two pathogen-responsive upstream open reading frames (nucleic acid)
DNA: TCTAGAAACAGCATCCGTTTTTATAATTTAATTTTCTTACAAAGGTAGGACCAACATTTGTGATCTATAAATCTTCCTACTACGTTATATAGAGACCCTTCGACATAACACTTAACTCGTTTATATATTTGTTTTACTTGTTTTGCACATACACACAAAAATAAAAAAGACTTTATATTTATTTACTTTTTAATCACACGGATTAGCTCCGGCGAAGTATGGTCGTCGTCTTCATCTTCTTCCTCCATCATCAGATTTTTCCTTAAATGGAAGAAACCAAACGAAACTCCGATCTTCTCCGTTCTCGTGTTTTCCTCTCTGGCTTTTATTGCTGGGATTGGGAATTTCTCACCGCTCTCTTGCTTTTTAGTTGCTGATTCTTTTTCCTTCGACTTTCTATTTCCAATCTTTCTTCTTCTCTTTGTGTATTAGATTATTTTTAGTTTTATTTTTCTGTGGTAAAATAAAAAAAGTTCGCCGGAG
- suppression of cytosol-synthesized LUC and ER-synthesized GFPER (LUC, GFPER, TBF1-YFP; 35S promoter, vs mutant uorfs (ATG to CTG)): largely suppress
- mRNA levels (LUC, GFPER, TBF1-YFP; LUC and GFPER): without significantly affecting mRNA levels
- cell death induced by overexpression of TBF1 (TBF1-YFP) (LUC, GFPER, TBF1-YFP; vs 35S:uorfsTBF1-TBF1-YFP): tight enough to prevent cell death
- translation of the LUC reporter in rice (LUC reporter; 35S:uORFsTBF1-LUC vs 35S:uorfsTBF1-LUC): could suppress translation of the reporter in rice
- LUC mRNA levels in rice (LUC reporter; in vivo): without significantly influencing mRNA levels
